{"source": "patent US20250011738A1", "about": "“HEAT TOLERANT ALKALINE PHOSPHATASE” (BiomEdit, LLC, priority 2021, published 2025)", "proteins": {"B1": {"name": "Paenibacillus lentus alkaline phosphatase AP1 (designated \"Native\"), serine (S) replacement for an aspartic acid (D), SEQ ID NO: 4 (Paenibacillus lentus; D102S) (protein)", "chain": "ESSNGQSKNLIVLIGDGMGPAQVSAARYFQQHKNNINSLNLDPYYVGQATTYADRGEDGGHIVSGIVTSSASAGTAFATGNKTYNAAISVSNEDVSRPFASVLEAAELSGKSTGLVTTARITHATPAVYASHVRSRDNENAIAFQYLDSGIDVLLGGGESFFVTKEEKGKRNDKNLLPEFEAKGYKVVKTGQSLKSLSAKDAKVLGLFGGSHIAYVPDRSDETPSLAEMTSKALEILSTNENGFAIMIEGGRIDHAGHANDFPTMVQEALDFDEAFKVAIDFAKKDGNTSVVVTADHETGGLSLSRDNIYELNVDLWNKQKNSSESLVSALNEAKTIADVKKIVSDNTWITDLTNEEAQYILDGDGSSYKREGGYNAVISKRLLVGWSGHGHSAVDVGVWAYGPIADKVKGQIDNTRIATASAEVLGVDLKKATADLQSKYLYPKFKINRNKEVLFPAKPLAEALGGKYQAANGTATISGMSGTITVDLNAKKAKLSGNSSSITIDVDNDVLYLPLTAFSQITGQTLKWDALSERIMLK"}, "B2": {"name": "Paenibacillus lentus alkaline phosphatase AP1 heat tolerant mutant APHT (designated \"HT\"), 16 amino acid changes from AP1, SEQ ID NO: 1 (Paenibacillus lentus; … (protein)", "chain": "ESSNGQSKNLIVLIGDGMGPAQVSAARYFQQHINNINSLNLDPYYVGQATTYADRGEDGGHIVSGIITSSAAAGTAIATGNKTNNAAISVSNEDVSRPFASVHEAAELSGKSTGLVTTARITHATPAVYGSHVRNRDNENAIAFQYLDSGIDVLLGGGESFFVTNEEKGKRNDKNLLPEFEAKGYKVVKNGQSLKSLSAKDAKVLGLFGGSHIPYVPDRSDETPSLAEMTSKALEILSTNENGFAIMIEGGRIDHAAHANDFPTMVQEMLAFDEAFKVAIDFAKKDGNTSVVVTADHETGGLSLGRDNIYELNVDLWNKQKNSSESLVSALNEAKTIADVKKIVSDNTWITDLTNEEAQYILDGDGSSYKREGGYNAVISKRLLVGWSGHGHSAVDVGVWAYGPIADKVKGQIDNTRIATASAEVLGVDLKKATADLQSKYLYPKFKINRNKEVLFPAKPLAEALGGKYQAANGTATISGMSGTITVDLNAKKAKLSGNSSEITIDVDNDVLYLPLTAFSQITGQTLKWDALSERIMLK"}, "B3": {"name": "Paenibacillus lentus alkaline phosphatase AP1 heat tolerant mutant APHT (HTAP), SEQ ID NO: 1 (Paenibacillus lentus; … (protein)", "chain": "B2 chain"}}, "format_in_all_cases": "biochemical, Paenibacillus lentus", "key": {"[1]": {"substrate": "Nc1ncnc2c1ncn2[C@@H]1O[C@H](COP(=O)(O)OP(=O)(O)OP(=O)(O)O)[C@@H](O)[C@H]1O", "assay": "Phosphate assay (Malachite green) with UDP, ATP and dAMP, AP1 (\"Native\")", "method": "(§1) FIG. 9 depicts (A)Vmax (IU/mg) and (B) KM (μM) activity of AP1 (designated “Native”) and APHT (designated “HT”) on UDP, ATP and dAMP. Assays were performed at 40° C. with p substrate concentration 0-5 mM in Tris buffer pH 8. The enzyme concentration was 2 μg/mL.\n(§2) FIG. 10 depicts (A)Vmax (IU/mg) and (B) KM (μM) activity of AP1 (designated “Native”) and APHT (designated “HT”) with UDP, ATP and dAMP. Assays were performed at 50° C. with p substrate concentration 0-5 mM in DEA buffer pH 10. The enzyme concentration was 2 μg/mL.\n(§3) Enzymes, including lysozyme and alkaline phosphatase, are recognized as disruptors of bacterial debris and inflammation. These enzymes reduce inflammation, including by lysing the peptidoglycans and LPS of bacteria, thus deactivating them and thereby bypassing the inflammatory response. An alkaline phosphatase was initially identified and modified from Paenibacillus lentus bacteria and expressed for application and use as a farm animal feed additive. This modified alkaline phosphatase is characterized by having a serine (S) replacement for an aspartic acid (D) in the native bacterial alkaline phosphatase protein sequence and is designated herein as AP1. […] The AP1 alkaline phosphate is described including in U.S. Pat. No. 9,326,535 issued May 3, 2016. The sequence of AP1 is as follows (the serine is in bold and underlined) (SEQ ID NO:4):\n(§4) 5. Phosphate Assay with Biological Substrates UDP, ATP, and dAMP (Native and HT)\n(§5) Phosphatase activity with UDP, ATP and dAMP was assessed by measuring the release of […] with the Malachite green reagent (Sigma) at 40° C. and 50° C. Assay consisted of nucleotide phosphate in the concentration range 0-5 mM, 2 μg/mL AP in a final volume of 100 μL. The reaction was initiated in a 96-well microplate with the addition of enzyme and incubated for 5 min. After this time, 10 μL of reaction were mixed with 90 μL of water 25 μL of Malachite green solution. The microplate was shaken for 20 min at 25° C. and absorption was recorded at 620 nm. As standard pyrophosphate solution in water was used in the concentration range of 0-40 μM. Each experiment was done by triplicated at least."}, "[2]": {"substrate": "Nc1ncnc2c1ncn2[C@H]1C[C@H](O)[C@@H](COP(=O)(O)O)O1", "assay": "Phosphate assay (Malachite green) with UDP, ATP and dAMP, AP1 (\"Native\")", "method": "as §1, §2, §3, §4, §5"}, "[3]": {"substrate": "O=c1ccn([C@@H]2O[C@H](COP(=O)(O)OP(=O)(O)O)[C@@H](O)[C@H]2O)c(=O)[nH]1", "assay": "Phosphate assay (Malachite green) with UDP, ATP and dAMP, AP1 (\"Native\")", "method": "as §1, §2, §3, §4, §5"}, "[4]": {"substrate": "Nc1ncnc2c1ncn2[C@@H]1O[C@H](COP(=O)(O)OP(=O)(O)OP(=O)(O)O)[C@@H](O)[C@H]1O", "assay": "Phosphate assay (Malachite green) with UDP, ATP and dAMP, APHT (\"HT\")", "method": "as §1, §2\n(§6) To further improve the thermal stability, a set of synthetic alkaline phosphatase genes where each amino acid was mutated to other possibilities one at a time was constructed and evaluated. Numerous single amino acids changes improving heat tolerance were combined and incorporated into a mutated alkaline phosphatase version yielding the alkaline phosphatase heat tolerant molecule designated APHT. […] (FIG. 4), and has a total of 16 amino acid changes from the original AP1 sequence (see FIG. 5A and B). In FIG. 5A, the AP1 with a serine mutation is designated as “AP Native” and is depicted in sequence with a leader sequence ASGFYVSGT (SEQ ID NO:13). The AP1 with leader sequence ASGFYVSGT is provided in SEQ ID NO:14). The APHT polypeptide with leader sequence ASGFYVSGT is provided in SEQ ID NO:15). In FIG. 5B, the AP1 with a serine mutation and without any leader sequence or leader peptide amino acids (SEQ ID NO:4) is aligned and compared with the APHT without any leader sequence or leader peptide amino acids (SEQ ID NO:1). The 16 amino acid changes in APHT are evident. The APHT amino acid sequence (excluding and without any leader sequence and starting with amino acids ESSN) is 97% identical to the sequence of AP1 (excluding and without any leader sequence and starting with amino acids ESSN).\n(§7) The APHT sequence (SEQ ID NO: 1) is provided below with the amino acid mutations versus the AP1 sequence underlined and in bold.\nas §4, §5"}, "[5]": {"substrate": "Nc1ncnc2c1ncn2[C@H]1C[C@H](O)[C@@H](COP(=O)(O)O)O1", "assay": "Phosphate assay (Malachite green) with UDP, ATP and dAMP, APHT (\"HT\")", "method": "as §1, §2, §6, §7, §4, §5"}, "[6]": {"substrate": "O=c1ccn([C@@H]2O[C@H](COP(=O)(O)OP(=O)(O)O)[C@@H](O)[C@H]2O)c(=O)[nH]1", "assay": "Phosphate assay (Malachite green) with UDP, ATP and dAMP, APHT (\"HT\")", "method": "as §1, §2, §6, §7, §4, §5"}, "[7]": {"substrate": "Nc1ncnc2c1ncn2[C@@H]1O[C@H](COP(=O)(O)OP(=O)(O)OP(=O)(O)O)[C@@H](O)[C@H]1O", "assay": "Dephosphorylation of substrates UDP, ATP and dAMP (Example 4, Table 11)", "conditions": "other: Table 11; conditions not given", "method": "(§8) The inorganic phosphorous release (μM) from each of these sources by the heat tolerant HTAP was determined and is shown in FIG. 12. […] The inorganic phosphorous release (μM) was also assessed from the metabolically relevant compounds phosphocholine, phosphocreatine and phytic acid and compared with native AP. The heat tolerant HTAP was comparably active vs native AP in Pi release from each of compounds phosphocholine, phosphocreatine and phytic acid (data not shown).\n(§9) Dephosphorylation of substrates UDP, ATP and dAMP was also assessed and determined."}, "[8]": {"substrate": "Nc1ncnc2c1ncn2[C@H]1C[C@H](O)[C@@H](COP(=O)(O)O)O1", "assay": "Dephosphorylation of substrates UDP, ATP and dAMP (Example 4, Table 11)", "conditions": "other: Table 11; conditions not given", "method": "as §8, §9"}, "[9]": {"substrate": "O=c1ccn([C@@H]2O[C@H](COP(=O)(O)OP(=O)(O)O)[C@@H](O)[C@H]2O)c(=O)[nH]1", "assay": "Dephosphorylation of substrates UDP, ATP and dAMP (Example 4, Table 11)", "conditions": "other: Table 11; conditions not given", "method": "as §8, §9"}, "[10]": {"conditions": "other: 40° C., Tris buffer pH 8, enzyme 2 μg/mL, pH 8.0, 40.0 °C"}, "[11]": {"conditions": "other: 50° C., DEA buffer pH 10, enzyme 2 μg/mL, pH 10.0, 50.0 °C"}}, "data": [{"protein": "B1", "values": [{"measurement": "Km", "setting": "[1]; [10]", "result": 110, "unit": "µM"}, {"measurement": "Vmax", "setting": "[1]; [10]", "result": 336, "unit": "IU/mg"}, {"measurement": "Km", "setting": "[1]; [11]", "result": 210, "unit": "µM"}, {"measurement": "Vmax", "setting": "[1]; [11]", "result": 578, "unit": "IU/mg"}, {"measurement": "Km", "setting": "[2]; [10]", "result": 113, "unit": "µM"}, {"measurement": "Vmax", "setting": "[2]; [10]", "result": 356, "unit": "IU/mg"}, {"measurement": "Km", "setting": "[2]; [11]", "result": 199, "unit": "µM"}, {"measurement": "Vmax", "setting": "[2]; [11]", "result": 730, "unit": "IU/mg"}, {"measurement": "Km", "setting": "[3]; [10]", "result": 74, "unit": "µM"}, {"measurement": "Vmax", "setting": "[3]; [10]", "result": 447, "unit": "IU/mg"}, {"measurement": "Km", "setting": "[3]; [11]", "result": 83, "unit": "µM"}, {"measurement": "Vmax", "setting": "[3]; [11]", "result": 608, "unit": "IU/mg"}]}, {"protein": "B2", "values": [{"measurement": "Km", "setting": "[4]; [10]", "result": 97, "unit": "µM"}, {"measurement": "Vmax", "setting": "[4]; [10]", "result": 358, "unit": "IU/mg"}, {"measurement": "Km", "setting": "[4]; [11]", "result": 283, "unit": "µM"}, {"measurement": "Vmax", "setting": "[4]; [11]", "result": 380, "unit": "IU/mg"}, {"measurement": "Km", "setting": "[5]; [10]", "result": 165, "unit": "µM"}, {"measurement": "Vmax", "setting": "[5]; [10]", "result": 262, "unit": "IU/mg"}, {"measurement": "Km", "setting": "[5]; [11]", "result": 623, "unit": "µM"}, {"measurement": "Vmax", "setting": "[5]; [11]", "result": 472, "unit": "IU/mg"}, {"measurement": "Km", "setting": "[6]; [10]", "result": 93, "unit": "µM"}, {"measurement": "Vmax", "setting": "[6]; [10]", "result": 631, "unit": "IU/mg"}, {"measurement": "Km", "setting": "[6]; [11]", "result": 121, "unit": "µM"}, {"measurement": "Vmax", "setting": "[6]; [11]", "result": 521, "unit": "IU/mg"}]}, {"protein": "B3", "values": [{"measurement": "Km", "setting": "[7]", "result": "399 ± 68", "unit": "µM"}, {"measurement": "kcat", "setting": "[7]", "result": "0.1 ± 0.00333", "unit": "s⁻¹"}, {"measurement": "Km", "setting": "[8]", "result": "242 ± 27", "unit": "µM"}, {"measurement": "kcat", "setting": "[8]", "result": 0.132, "unit": "s⁻¹"}, {"measurement": "Km", "setting": "[9]", "result": "166 ± 14", "unit": "µM"}, {"measurement": "kcat", "setting": "[9]", "result": "0.125 ± 0.00167", "unit": "s⁻¹"}]}]}
